Experimental data: the supplement of paper PMC10567573
± gives the standard deviation.

Assay: protein stability index of a GFP-peptide fusion (GPS, HEK-293T) (PSI 1-6); higher = more stable
[1] = treatment: DMSO, c terminus: a fixed tail appended
[2] = treatment: MLN4924 1 uM, 8 h, c terminus: a fixed tail appended
[3] = treatment: DMSO, c terminus: native
[4] = treatment: MLN4924 1 uM, 8 h, c terminus: native
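Also: 24-mer peptide tiles fused after GFP, lentivirally expressed, FACS-sorted into six equal bins by GFP/DsRed ratio, decoded by Illumina sequencing, PSI is the read-weighted mean bin number.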

Sequence | protein stability index [1] | protein stability index [2] | protein stability index [3] | protein stability index [4]
SVSVWDLAAPSLHVKEQLPCAGLN [TLE6] | 2.91 ± 0.2 | 3.08 ± 0.3 | – | –
GLKPGPEDGPGKEEAPELDEAELD [SERTAD1] | 5.67 ± 0.34 | 5.83 ± 0.064 | – | –
NLGRMIDWVPVESLLRPLNSLAAL [ZER1] | 1.72 ± 0.18 | 2.28 ± 0.66 | – | –
PECRQVLKTSRKDVKDKETTENEN [CHGB] | 5.54 ± 0.3 | 5.45 ± 0.37 | – | –
GGLQKMVALLNKTNVKFLAITTDC [CTNNB1] | 2.73 ± 0.61 | 2.45 ± 0.46 | – | –
DDLETMPDDLLTTLDDTCDLFAPL [ATF4] | 5.01 ± 0.088 | 5.08 ± 0.16 | – | –
HGHYSMHCLHSAGHSQPDGAYSSA [DLX1] | 3.48 ± 0.27 | 3.47 ± 0.23 | – | –
LKYMEVTLRPTDSQSHCYRTCFSP [PCDHGC5] | 2.31 ± 0.2 | 2.25 ± 0.34 | – | –
MWYPEIKHFCPRAPVILVGCQLDL [RHOBTB2] | 3.24 ± 0.81 | 2.77 ± 0.28 | – | –
AEKKKPKTQIVCKHFLEAIENNKY [ZC3H15] | 3.51 ± 0.41 | 3.63 ± 0.25 | – | –
GVQKMNSKTVTSTMLGVFREDPKT [GCH1] | 4.43 ± 0.45 | 4.05 ± 0.33 | – | –
SLLGEPCAGPGFTHNIAHGSLGFE [SPAG8] | 3.03 ± 0.45 | 2.92 ± 0.4 | – | –
ETRRLSIGLDNGTISEFILSEDYN [WDFY2] | 3.84 ± 0.34 | 4.03 ± 0.3 | – | –
QQRLAHLEDKLRLLAQARDEAQGA [LRRC45] | 4.29 ± 0.28 | 4.37 ± 0.36 | – | –
KFYTWLWGVFYYFVSALGITAGAH [SCD] | 2.253 ± 0.003 | 2.84 ± 1.1 | – | –
VDICHMLVQFCRLGSPRSRGCLW [EHMT1] | – | – | 2.67 ± 0.14 | 2.71 ± 0.66
QPGAGFGMPPAGTGMPMMPQQPVM [SNAP91] | 3.71 ± 0.26 | 3.84 ± 0.3 | – | –
FSIGLGPMPWLVLSEIFPGGIRGR [SLC2A12] | 2.29 ± 0.67 | 2.51 ± 0.5 | – | –
QEILELIDREVDLMMRGVKHHNLE [IQUB] | 2.67 ± 0.46 | 2.64 ± 0.5 | – | –
LLPNQSHGNQSAGEDQAFGDWLLT [SLC22A15] | 4.14 ± 0.35 | 4.24 ± 0.18 | – | –
GFGDEDTGLELIAEESNPPLQDFP [MIA2] | 5.4 ± 0.34 | 5.23 ± 0.069 | – | –
HEEFFPAFQAFTNDLLEILEIDDL [CEP70] | 3.48 ± 0.21 | 3.43 ± 0.37 | – | –

Sequence | protein stability index [1] | protein stability index [2] | protein stability index [3] | protein stability index [4]
LEYLYTANVTLSLDTVEEVLSVSK [KLHL14] | 2.41 ± 0.66 | 1.96 ± 0.36 | – | –
ASFYACRLDKHLYVIGGRNETGYL [KLHL14] | 2.7 ± 0.54 | 2.54 ± 0.95 | – | –
LSFSGSDVQNKLKESAQCVGDEFL [SNX8] | 4.48 ± 0.2 | 4.49 ± 0.21 | – | –
TDAFLDRPPTPLFIPAKTGKDVAT [RSPH3] | 4.58 ± 0.18 | 4.6 ± 0.22 | – | –
HLELTRKLQDLIKDVLRYGEEQLK [FCHO1] | 2.95 ± 0.52 | 2.71 ± 0.69 | – | –
QITVKALPKPPGTPVVTESTATSI [PTPRD] | 4.62 ± 0.29 | 4.61 ± 0.091 | – | –
EQVFLYENARSGAEAEPEDQDEGE [ZBED1] | 5.7 ± 0.25 | 5.52 ± 0.4 | – | –
HVKIVKLLLAHKADVNAQSSTGNT [ANKRD17] | 2.32 ± 0.26 | 2.36 ± 0.22 | – | –
QRHRDILQVIYWARDVFIITGVWV [GOSR1] | 2.72 ± 0.72 | 2.25 ± 0.73 | – | –
RYIIFKRNTLNQPCSGSVSLQPRR [GMCL1] | 2.27 ± 0.22 | 2.36 ± 0.43 | – | –
TATCTTNNNPNSCVNIKKIFTDV [KCNA3] | – | – | 4.08 ± 0.24 | 3.97 ± 0.11
FSFKVSRWMGLACFRSLAASSPSI [CCDC70] | 2.2 ± 0.34 | 2.63 ± 0.53 | – | –
LPGSDVSGRLMGSPPVPGPSAALT [FBXO28] | 4.42 ± 0.16 | 4.6 ± 0.33 | – | –
LWELCHLWLRPEVHTKEQILELLV [ZNF396] | 2.22 ± 0.36 | 2.31 ± 0.072 | – | –
QTLLPAACLLQLAEIQEACCEFLK [KLHL20] | 2.21 ± 0.31 | 2.36 ± 0.15 | – | –
LRCRKEFYQLVWSALPFITYLENK [POP5] | 2.41 ± 0.9 | 2.07 ± 0.17 | – | –
FMLGLGTLLPWNFFMTATQYFTNR [SLC29A1] | 2.87 ± 0.55 | 3.13 ± 0.26 | – | –
PPKAPPPVIKIPECPSMGTNEAAC [RHOBTB1] | 4.71 ± 0.23 | 4.86 ± 0.2 | – | –
GVEPSPSPIKPGDIKRGIPNYEFK [UFD1] | 4.25 ± 0.24 | 4.24 ± 0.24 | – | –
KCQHYKKKRTEQEETIASLQMEVC [CEP70] | 4.008 ± 0.008 | 4.02 ± 0.56 | – | –
QQRLQGQLCDVSIRVQGREFRAHR [ZBTB22] | 3.34 ± 0.42 | 3.81 ± 0.5 | – | –
QWQDLMSIMEMQAMEVNTSASEIL [NFE2L1] | 2.88 ± 0.45 | 2.86 ± 0.4 | – | –

Sequence | protein stability index [1] | protein stability index [2] | protein stability index [3] | protein stability index [4]
HKRRRRKQKVSRIERSSSFSSITD [DVL3] | 4.28 ± 0.096 | 4.55 ± 0.092 | – | –
GRNFILFIIFGTMEEMQNKAVVFF [HACD3] | 2.94 ± 1.4 | 2.36 ± 1.2 | – | –
PAATFGADDLVLTLSNPQMSLEGT [ELF3] | 4.24 ± 0.3 | 4.32 ± 0.23 | – | –
LREAVPGILRARRGEGIQAPSFSS [SOAT2] | 3.4 ± 0.29 | 3.44 ± 0.35 | – | –
VNHYSEVADGLCCVLTTPCLTQST [SLA] | 2.77 ± 0.27 | 2.53 ± 0.38 | – | –
LFEDIVAREYYSEADASHCIQQIL [CAMK2A] | 2.36 ± 0.069 | 2.62 ± 0.35 | – | –
AALEAAGEGLNVIQQTTRYFSTPQ [NANOGP8] | 3.3 ± 0.16 | 3.31 ± 0.25 | – | –
NRRRFRVRQPILQYRWDMMHRLGE [BEX1] | 2.31 ± 0.15 | 2.17 ± 0.29 | – | –
LKTQMKMSLKCLAARAVRANDINY [FEM1B] | 3.02 ± 0.44 | 2.67 ± 0.16 | – | –
EDQGRTRKRKQSGHSPARAGKQRM [DDIT3] | 4.96 ± 0.27 | 4.96 ± 0.089 | – | –
HLTSVTSESEQEFLYKTAGGLIYW [CD207] | 2.33 ± 0.28 | 2.63 ± 0.33 | – | –
TIEDEDTKVRKQEIIKVTEQLIEA [CAMK2A] | 5.27 ± 0.28 | 5.02 ± 0.25 | – | –
PRRSLSISKNKKKASNSIISCFNN [FAN1] | 2.79 ± 0.13 | 3.75 ± 0.29 | – | –
DRESLCGASTSCLLPVQVVTEHPL [PCDHGC5] | 4.16 ± 0.18 | 4.39 ± 0.27 | – | –
QVGTMALWASQREKEVLRRERAVE [ZBED2] | 4.11 ± 0.26 | 4.31 ± 0.18 | – | –
SLLPGAVEQPQPQFISRFLEGQSG [NEK8] | 3.5 ± 0.18 | 3.73 ± 0.16 | – | –
WEGFIGGFFSTVVFGFIAAYVLSK [CDS1] | 2.55 ± 0.54 | 3.08 ± 0.15 | – | –
EEILTLFCGAPPVTPIIVLSIINF [PHTF1] | 2.84 ± 0.26 | 2.97 ± 0.51 | – | –
GAILTTMLATRNFSGGKSGGNKKS [CAMK2A] | 3.67 ± 0.24 | 3.63 ± 0.41 | – | –
NRVWSISQEPDPVQRLQAYTATEQ [TRIM14] | 4.09 ± 0.31 | 3.97 ± 0.31 | – | –
PVIKIPECPSMGTNEAACLLDNPL [RHOBTB1] | 4.33 ± 0.16 | 4.41 ± 0.24 | – | –
